Experimental data reported in patent publication US20250263481A1 (SHIJIAZHUANG YILING PHARMACEUTICAL, published 2025).
Positions count from the first letter of the chain named.

B1: YL-G1-19-02 (antibody, human IgG1, kappa)
heavy: not shown
light: DIVMTQSPSSLTVTAGEKVTMSCKSSQSLLNSGNQKNYLTWYQQRPGQPPKLLIYWASTRESGVPVRFTGSGSGTDFTLTISSVQAEDLAVYYCQNAYIYPLTFGTGTKLELKRTVAAPSVFIFPPSDEQLKSGTASVVCLLNNFYPREAKVQWKVDNALQSGNSQESVTEQDSKDSTYSLSSTLTLSKADYEKHKVYACEVTHQGLSSPVTKSFNRGEC
notes: Mouse/human chimeric IgG1 kappa, first generation; also called YL-G1-02
B2: YL-G2-B (antibody, human IgG1, kappa)
heavy: EVQLQQSGPELEKPGASVKISCKASGYSFTGYKMNWVKQSNGKSLEWIGNIDPYYGGTTYNQKFKGKATLTVDKSSSTAYMQLKSLTSEDSAVYYCARYGKGNTMDYWGQGTSVTVSSASTKGPSVFPLAPSSKSTSGGTAALGCLVKDYFPEPVTVSWNSGALTSGVHTFPAVLQSSGLYSLSSVVTVPSSSLGTQTYICNVNHKPSNTKVDKRVEPKSCDKTHTCPPCPAPELVGGPSVFLLPPKPKDTLMISRTPEVTCVVVDVSHEDPEVKFNWYVDGVEVHNAKTKPPEEQYNSTLRVVSVLTVLHQDWLNGKEYKCKVSNKALPAPIEKTISKAKGQPREPQVYTLPPSREEMTKNQVSLTCLVKGFYPSDIAVEWESNGQPENNYKTTPLVLDSDGSFFLYSKLTVDKSRWQQGNVFSCSVMHEALHNHYTQKSLSLSPGK
light: B1 light
notes: also called YL-G2-B batch 1; YL-G2-B batch 2
B3: YL-G1-19-04 (antibody, human IgG1, kappa)
heavy: not shown
light: B1 light with M21L, T75A, Y93F, I99F, K113R
notes: Mouse/human chimeric IgG1 kappa, first generation
B4: YL-G1-19-03 (antibody, human IgG1, kappa)
heavy: not shown
light: B1 light with R45K, V66D, V91I, A97N, I99F, T106A, K109R
notes: as for B3
B5: YL-G2-D (antibody, human IgG1, kappa)
heavy: QLQQSGPELEKPGASVKISCKASGYSFTGYKMNWVKQSNGESLEWIGNIDPYYGDTTYTQKFKGKATFTVDTSSSTAYMQLKSLTSEDSAVYFCARYNRGNTMDYWGQGTSVTVSSASTKGPSVFPLAPSSKSTSGGTAALGCLVKDYFPEPVTVSWNSGALTSGVHTFPAVLQSSGLYSLSSVVTVPSSSLGTQTYICNVNHKPSNTKVDKRVEPKSCDKTHTCPPCPAPELVGGPSVFLLPPKPKDTLMISRTPEVTCVVVDVSHEDPEVKFNWYVDGVEVHNAKTKPPEEQYNSTLRVVSVLTVLHQDWLNGKEYKCKVSNKALPAPIEKTISKAKGQPREPQVYTLPPSREEMTKNQVSLTCLVKGFYPSDIAVEWESNGQPENNYKTTPLVLDSDGSFFLYSKLTVDKSRWQQGNVFSCSVMHEALHNHYTQKSLSLSPGK
light: B1 light with M21L, T75A, Y93F, I99F, K113R
notes: Second generation, Fc-engineered form of YL-G1-19-04
B6: YL-G2-C (antibody, human IgG1, kappa)
heavy: QIQLVQSGPELRKPGETVKISCKASGFPFTTDGMSWVKQAPGKGLKWMGWINTYSGVPTYADDFKGRVAFSLETSASTAYLQIKNLKNEDTATYFCARFRRGNALDNWGQGTSVTVSSASTKGPSVFPLAPSSKSTSGGTAALGCLVKDYFPEPVTVSWNSGALTSGVHTFPAVLQSSGLYSLSSVVTVPSSSLGTQTYICNVNHKPSNTKVDKRVEPKSCDKTHTCPPCPAPELVGGPSVFLLPPKPKDTLMISRTPEVTCVVVDVSHEDPEVKFNWYVDGVEVHNAKTKPPEEQYNSTLRVVSVLTVLHQDWLNGKEYKCKVSNKALPAPIEKTISKAKGQPREPQVYTLPPSREEMTKNQVSLTCLVKGFYPSDIAVEWESNGQPENNYKTTPLVLDSDGSFFLYSKLTVDKSRWQQGNVFSCSVMHEALHNHYTQKSLSLSPGK
light: B1 light with R45K, V66D, V91I, A97N, I99F, T106A, K109R
notes: Second generation, Fc-engineered
B7: YL-G1-19-01 (antibody, human IgG1, kappa, V domains shown)
VH: QVQLQQSGAELVRPGTSVKVSCKASGYAFTNYLIEWVKQRPGQGLEWIGVINPGSGGTNYNEKFKGKATLTADKSSNTAYMQLSSLTSEDSAVYFCARVYYGNSFGYWGQGTLVTVSA
VL: DIVMTQSPSSLTVTAGEKVTMSCKSSQSLLNSGNQKNYLTWYQQKPGQPPKLLIYWASTRESGVPDRFTGSGSGTDFTLTISSVQAEDLAVYYCQNEYFYPFTFGSGTKLEIKR
notes: also called chimeric antibody with the variable region of one of the mouse mAbs

target: human CLDN18.2 expressed on cells (human); test: cell-based or functional assay

ADCC, FACS: EC50 [nM]	ADCC, LDH: EC50 [nM]	Binder
~0.224	0.3	B1
0.0073	0.012	B2

target: human CLDN18.2 expressed on cells (human); test: cell-based or functional assay; remark: another data set of the same source

CDC on CT26 CLDN18.2 cells, LDH: EC50 [nM]	CDC on CT26 CLDN18.2 cells, LDH: EC50 (batch 1) [nM]	CDC on CT26 CLDN18.2 cells, LDH: EC50 (batch 2) [nM]	Binder	CDC on CT26 CLDN18.2 cells, LDH: max (% cytotoxity) [%]
0.19			B3	59.2
0.24			B4	62.2
0.12			B5	71.8
0.26			B1	73.4
	0.14	0.12	B2	
0.1			B6	65.2

target: human CLDN18.2 expressed on cells (human); test: cell-based or functional assay; remark: another data set of the same source

CDC on KATOIII CLDN18.2 cells, LDH: EC50 [nM]	CDC on KATOIII CLDN18.2 cells, LDH: EC50 (batch 1) [nM]	CDC on KATOIII CLDN18.2 cells, LDH: EC50 (batch 2) [nM]	Binder	CDC on KATOIII CLDN18.2 cells, LDH: max (% cytotoxity) [%]
4.76			B3	48.3
~4.98			B4	67
2.4			B5	49.2
1.95			B1	35.4
	1.24	1.33	B2	
~6.04			B6	74.6

target: human CLDN18.2 expressed on cells (human); test: cell-based or functional assay; remark: another data set of the same source

ADCC on KATOIII CLDN18.2 cells, LDH: EC50 [nM]	ADCC on KATOIII CLDN18.2 cells, LDH: EC50 (batch 1) [nM]	ADCC on KATOIII CLDN18.2 cells, LDH: EC50 (batch 2) [nM]	Binder	ADCC on KATOIII CLDN18.2 cells, LDH: max (% cytotoxity) [%]
0.14			B3	15.4
0.21			B4	16.7
0.021			B5	18.4
0.16			B1	19.9
	0.028	0.018	B2	
0.019			B6	17.6

target: human CLDN18.2 expressed on cells (human); test: cell-based or functional assay; remark: another data set of the same source

ADCC on NCI-N87 CLDN18.2 cells, LDH: EC50 [nM]	ADCC on NCI-N87 CLDN18.2 cells, LDH: EC50 (batch 1) [nM]	ADCC on NCI-N87 CLDN18.2 cells, LDH: EC50 (batch 2) [nM]	Binder	ADCC on NCI-N87 CLDN18.2 cells, LDH: max (% cytotoxity) [%]
0.067			B3	12.6
0.13			B4	15.2
0.0089			B5	18.6
0.072			B1	16.8
	0.0067	0.012	B2	
0.0078			B6	14.9

target: T1, human CLDN18.2 expressed on cells (human); test: KinExA 4000, antibody constant, CHO cells over-expressing huCLDN18.2 titrated
T1 construct: also called huCLDN18.2; CLDN18.2-expressing 293T cells
Procedure: A KinExA 4000 instrument was also used to measure binding affinity of the antibodies to surface protein of intact cells, i.e., CHO cells over-expressing huCLDN18.2. Concentration of the antibodies was held constant (CBP) and concentration of whole cells with surface protein were varied (titrant). Concentration of whole cells with surface proteins were diluted three-fold. Titrated cells were incubated with the constant binding partner (CBP). Once equilibrium was reached, the samples were centrifuged, the supernatants were recovered, and the free CBP was detected with a fluorescently labeled anti-CBP molecule.
To establish a more accurate Kd, two equilibrium curves were prepared and analyzed. One curve with low concentration of CBP at 100 pM (200 pM binding sites) and 10⁶ cells/mL with three-fold dilutions, and one curve with high concentration of CBP at 10 nM (20 nM binding sites) and 10⁶ cells/mL with three-fold dilutions. The KinExA 4000 measured the amount of unbound CBP in solution. Analysis was performed using Sapidyne Instruments n-Curve Analysis Software version 4.4.26.

Kd [nM]	Binder
0.0131	B5
0.0094	B2
0.0386	B6

target: T1, human CLDN18.2 expressed on cells; test: flow cytometry (percent FITC-positive cells, GAH-FITC secondary) on CHO cells expressing huCLDN18.2
Procedure: CHO cells expressing huCLDN18.2 were used to assess the binding of the antibodies. Cells were seeded at 5×10⁵ cells per 100 μl into a well of a 96-well plate for each sample. Then, 100 μl of each serially diluted antibody was added to the cells, each dilution started at 40 µg/ml and was diluted 5-fold. Therefore, the final concentration of each antibody starts at 20 µg/ml followed by a 5-fold serial dilution. After 1 hour, the cells were washed twice and 100 μl of GAH-FITC (1:200 dilution) was added to each well. After 30 minutes, the cells were washed twice and resuspended in 120 μl of FACS buffer. The cells were analyzed via flow cytometry.
Unstained cells were used as a reference to set up overall target cell gating and to establish the FITC-negative populations, allowing us to establish the FITC-positive cell gate for each cell line. Additionally, the mean fluorescence intensity (MFI) of the entire population of cells was calculated to secondarily validate the FITC-positive results. The ratio of the gated positive cell number to the total live cell number is taken as the percentage of positive cells.

EC50 (read off the curve) [µg/mL]	Binder
~0.0003	B5
~0.0006	B2
~0.0006	B6

target: T1, human CLDN18.2 expressed on cells; test: flow cytometry (geometric mean, Alexa Fluor 647 anti-human IgG Fc secondary) on CLDN18.2-expressing 293T cells
Procedure: (§1) CLDN18.2-expressing 293T cells and CLDN18.1-expressing 293T cells at a density of 2×10⁶ cells/ml in FACS buffer ([…]) were mixed with a dilution series ([…] in FACS buffer) of the chimeric antibodies, the reference antibody, or a IgG negative control (50 μL) in a 96-well V-bottom plate and incubated for 30 min on ice. After a wash with 200 μL/well FACS buffer, cells were resuspended in 30 μL/well secondary antibody Alexa Fluor® 647 AffiniPure Goat Anti-Human IgG, […] specific (Jackson, Cat. #109-605-098) and incubated for 20 min on ice. After three washes with 200 μL/well FACS buffer, cells were resuspended with 150 μl/well FACS buffer and subjected to FACS using BD LSR II Flow Cytometer (HTS). Geometric mean was used for data analysis and plots were made using Prism GraphPad.

EC50 (read off the curve) [µg/mL]	Binder
~1	B7
~0.7	B3
~0.6	B4
~0.7	B1

target: T2, human CLDN18.1 expressed on cells (human, UniProt P56856 1-261); test: flow cytometry (geometric mean, Alexa Fluor 647 anti-human IgG Fc secondary) on CLDN18.1-expressing 293T cells
T2 construct: also called huCLDN18.1; CLDN18.1-expressing 293T cells
T2 sequence (P56856 whole entry): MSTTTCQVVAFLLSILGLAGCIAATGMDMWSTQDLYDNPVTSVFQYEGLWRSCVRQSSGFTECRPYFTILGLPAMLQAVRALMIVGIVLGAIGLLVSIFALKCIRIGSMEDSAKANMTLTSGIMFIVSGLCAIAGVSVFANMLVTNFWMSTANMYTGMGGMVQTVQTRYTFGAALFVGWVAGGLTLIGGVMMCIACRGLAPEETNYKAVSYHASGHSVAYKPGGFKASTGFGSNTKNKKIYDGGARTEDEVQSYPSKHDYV
Procedure: as §1

binding result	Binder
no binding (tested: about 30 ug/ml)	B7
no binding (tested: about 30 ug/ml)	B3
no binding (tested: about 30 ug/ml)	B4
no binding (tested: about 30 ug/ml)	B1
